For one molecule, Kd results are on record in publication PMC10457384 (2023).

The term Kd denotes the free concentration of one partner at which half of the binding sites on the other are occupied at equilibrium, for simple one-to-one binding. A low value points to a tighter complex.

Experiment [1] addresses T1, Max 37-83 (Homo sapiens, UniProt P61244).
T1 chain: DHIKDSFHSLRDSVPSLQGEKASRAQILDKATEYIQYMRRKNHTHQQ
The experiment in a line: single-molecule SiNW-FET electrical recording (pH 6.5).

The target in experiment [2] is T1, Max 37-83. Briefly: single-molecule SiNW-FET electrical recording (pH 7.4, 37 °C).

Take KRRTHNVLERQRRNELKRSFFALRDQIPELENNEKAPKVVILKKA (C-terminal cysteine added to c-Myc, immobilized on nanowire) [c-Myc 370-414]: the results for the dissociation constant Kd in the experiment with Max 37-83 [1] and in the experiment with Max 37-83 [2] were 67 nM and 205 nM, respectively.
